± gives the uncertainty stated by the source.
Test: self-splicing fitness, log relative to wild type (ln ratio); higher = more splicing; Tetrahymena group I intron in knt gene, E. coli kanamycin selection, DiMSum; sequences stand for … in CUCUCU…GGAGGGAAAAGUUAUCAGGCAUGCACCUGGUAGCUAGUCUUUAAACCAAUAGAUUGCAUCGGUUUAAAAGGCAAGACCGUCAAAUUGCGGGAAAGGGGUCAACAGCCGUUCAGUACCAAGUCUCAGGGGAAACUUUGAGAUGGCCUUGCAAAGGGUAUGGUAAUAAGCUGACGGACAUGGUCCUAACCACGCAGCCAAGUCCUAAGUCAACAGAUCUUCUGUUGAUAUGGAUGCAGUUCACAGACUAAAUGUCGGUCGGGGAAGAUGUAUUCUUCUCAUAAGAUAUAGUCGGACCUCUCCUUAAUGGGAGCUAGCGGAUGAAGUGAUGCAACACUGGAGCCGCUGGGAACUAAUUUGUAUGCGAAAGUAUAUUGAUUAGUUUUGGAGUACUCGUGGUCG
Procedure, shortened: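 Pooled colonies went to amplicon sequencing on an Illumina HiSeq 2500 after six replicate transformations. The plates were LB agar with 100 μg/mL carbenicillin, 50 μM IPTG and 0.2% rhamnose, with or without 25 μg/mL kanamycin, incubated overnight at 37°C or 30°C. The E. coli BL21(DE3) library had all eight P1ex-region intron nucleotides randomised, the intron placed in the knt kanamycin-resistance gene on pET-22b(+). DiMSum fitness is the error-weighted combination of replicate fold changes, kanamycin against none, normalised to wild type.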

| Sequence | self-splicing fitness (ln) (30 °C) | self-splicing fitness (ln) (37 °C) |
| --- | --- | --- |
| CUUCAGCAAUAUUACGCGGG | -3.7 ± 0.19 | -2.61 ± 0.2 |
| UGCCAGCAAUAUUACGACAG | -1.31 ± 0.1 | -0.406 ± 0.12 |
| GUCCAGCAAUAUUACGAGGC | -2.32 ± 0.22 | -2.35 ± 0.37 |
| GCAUAGCAAUAUUACGUCUA | -0.451 ± 0.14 | -0.993 ± 0.13 |
| CCCUAGCAAUAUUACGAGUC | -3.63 ± 0.21 | -2.28 ± 0.27 |
| ACUAAGCAAUAUUACGGGGA | -1.84 ± 0.12 | -1.55 ± 0.13 |
| AUUAAGCAAUAUUACGUUCU | -0.566 ± 0.064 | 0.034 ± 0.086 |
| AGACAGCAAUAUUACGGUUA | -0.253 ± 0.082 | -0.109 ± 0.079 |
| UCAUAGCAAUAUUACGCGCG | -0.405 ± 0.3 | -0.412 ± 0.21 |
| UCUAAGCAAUAUUACGACGU | -0.257 ± 0.087 | -0.334 ± 0.11 |
| GCUAAGCAAUAUUACGGCCC | -1.78 ± 0.18 | -0.371 ± 0.14 |
| GCGGAGCAAUAUUACGUAUC | -1.83 ± 0.33 | – |
| AGCCAGCAAUAUUACGUUGG | -3.52 ± 0.4 | -2.56 ± 0.23 |
| GUACAGCAAUAUUACGCACG | -2.42 ± 0.28 | -0.89 ± 0.19 |
| CGCAAGCAAUAUUACGUACU | -1.64 ± 0.075 | -0.119 ± 0.096 |
| CCUUAGCAAUAUUACGUGAC | -3.61 ± 0.28 | -2.68 ± 0.28 |
| UACUAGCAAUAUUACGGGAU | -3.17 ± 0.17 | -1.43 ± 0.13 |
| UGGUAGCAAUAUUACGACAG | -0.598 ± 0.3 | -0.713 ± 0.38 |
| CCGAAGCAAUAUUACGGCGC | -4.16 ± 0.36 | -2.63 ± 0.49 |

| Sequence | self-splicing fitness (ln) (30 °C) | self-splicing fitness (ln) (37 °C) |
| --- | --- | --- |
| GCAGAGCAAUAUUACGCUGC | -3.42 ± 0.48 | -1.76 ± 0.33 |
| GGUCAGCAAUAUUACGGAGU | -0.947 ± 0.086 | 0.0968 ± 0.12 |
| UGGGAGCAAUAUUACGCCGG | -2.45 ± 0.23 | -2.19 ± 0.31 |
| AGAGAGCAAUAUUACGCGCA | -3 ± 0.36 | -1.74 ± 0.14 |
| AAUUAGCAAUAUUACGACCG | -1.2 ± 0.13 | 0.0816 ± 0.21 |
| CUGCAGCAAUAUUACGCGUC | -3.98 ± 0.35 | -2.05 ± 0.32 |
| GACGAGCAAUAUUACGUCCG | -3.22 ± 0.27 | -2.69 ± 0.36 |
| UUUAAGCAAUAUUACGGUAA | -1.08 ± 0.12 | -1.01 ± 0.096 |
| CGUCAGCAAUAUUACGAAAC | -3.63 ± 0.32 | -1.6 ± 0.32 |
| GGCUAGCAAUAUUACGCCCG | -4.06 ± 0.47 | -3.68 ± 0.26 |
| GCCUAGCAAUAUUACGGUCC | -3.85 ± 0.33 | -1.66 ± 0.24 |
| AUAUAGCAAUAUUACGGGGG | -2.92 ± 0.36 | -0.973 ± 0.28 |
| GCUAAGCAAUAUUACGGUUG | -2.99 ± 0.092 | -2.42 ± 0.098 |
| GUCAAGCAAUAUUACGUAUG | -4.08 ± 0.13 | -2.6 ± 0.11 |
| GAUCAGCAAUAUUACGGAAU | -1.27 ± 0.065 | -0.181 ± 0.087 |
| ACUAAGCAAUAUUACGGUCU | -1.45 ± 0.072 | -0.907 ± 0.082 |
| CCUCAGCAAUAUUACGUCCA | -2.26 ± 0.14 | -3 ± 0.29 |
| CCUGAGCAAUAUUACGAAUC | -3.69 ± 0.33 | -2.34 ± 0.43 |
| CAUAAGCAAUAUUACGUAAG | 0.111 ± 0.062 | 0.3 ± 0.079 |
